The results in this text go back to US20160264669A1 (ARGEN X N V, published 2016).

Experiment [1] concerns the target T1, murine CD16-2 (Sino Biological Inc., 50036-M27H-B) (murine, UniProt A0A0B4J1G0 21-203, Probably biotinylated on the vendor's tag (catalogue suffix -B); not carried in the letters).
T1 construct: Purchased reagent; Biotinylation is only implied by 'a similar experimental procedure as described above'; also called mCD16-2
T1 sequence: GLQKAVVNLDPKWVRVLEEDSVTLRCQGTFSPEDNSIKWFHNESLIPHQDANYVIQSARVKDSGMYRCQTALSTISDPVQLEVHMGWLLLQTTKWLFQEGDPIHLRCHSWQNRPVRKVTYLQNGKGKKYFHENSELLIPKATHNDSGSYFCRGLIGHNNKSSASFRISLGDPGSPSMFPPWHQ
The experiment is described as follows: ELISA on murine CD16-2, procedure similar to the hCD16a ELISA. The method, then: (§1) Specifically, a Maxisorp plate was coated with 100 ng/well of Neutravidin Biotin-binding Protein (ThermoScientific, 31000) and incubated overnight at 4° C. The following day, the plate was blocked with PBS+1% casein for 2 hours at room temperature. […] Binding to hCD16a was detected using an HRP-conjugated polyclonal goat anti-human Fc antibody (Jackson ImmunoResearch, 109-035-008) (incubation 1 hour at RT, dilution 1/50,000 in PBS+0.1% casein), followed by addition of 100 μl room temperature-equilibrated TMB (SDT-reagents #s TMB). Plates were incubated for 10 minutes prior to addition of 100 μl 0.5N H₂SO₄ and OD450 nm measurement. EC50 values were determined using GraphPad Prism software.
Using a similar experimental procedure as described above, the binding affinity for murine CD16-2 (Sino Biological Inc., 50036-M27H-B) was determined.

For experiment [2], the target named is T2, biotinylated hCD16a (Sino Biological Inc., 10389-H27H1-B) (human, UniProt P08637 17-208, biotinylated (site not stated)).
T2 construct: Purchased reagent; also called human CD16a
T2 sequence (P08637 17-208 limits assumed): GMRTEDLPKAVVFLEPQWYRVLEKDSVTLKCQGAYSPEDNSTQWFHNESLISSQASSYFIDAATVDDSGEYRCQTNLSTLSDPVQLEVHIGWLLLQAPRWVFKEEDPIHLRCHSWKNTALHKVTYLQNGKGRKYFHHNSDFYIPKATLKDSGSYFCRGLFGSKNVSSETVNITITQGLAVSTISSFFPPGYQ
In words: ELISA; biotinylated hCD16a captured on neutravidin plate, anti-human Fc-HRP detection. The procedure:
as §1
In general terms: In an ELISA, binding on a coated surface is turned into a signal by an enzyme label.

Experiment [3] concerns the target T2, biotinylated hCD16a (Sino Biological …). The experiment is described as follows: ELISA; biotinylated hCD16a captured on neutravidin plate; reference is fucosylated Fc-Abdeg. The procedure:
as §1

B1: Fc-Abdeg-POT (other)
chain: DKTHTCPPCPAPELLGGPSVFLFPPKPKDTLYITREPEVTCVVVDVSHEDPEVKFNWYVDGVEVHNAKTKPREEQYNSTYRVVSVLTVLHQDWLNGKEYKCKVSNKALPAPIEKTISKAKGQPREPQVYTLPPSRDELTKNQVSLTCLVKGFYPSDIAVEWESNGQPENNYKTTPPVLDSDGSFFLYSKLTVDKSRWQQGNVFSCSVMHEALKFHYTQKSLSLSPGK
modifications: afucosylated (defucosylated) N-linked glycan
notes: also called afucosylated form of Fc-Abdeg; afucosylated variant
The EC50 is the concentration at which the effect is half-maximal. Take B1: the EC50 in experiment [1] turned out to be 0.011 µM; in experiment [2] it was 0.013 µM. For the same molecule, the “fold increase in affinity vs Fc-Abdeg” value in experiment [3] is more than 30 fold.

B2: Fc-Abdeg (other)
chain: DKTHTCPPCPAPELLGGPSVFLFPPKPKDTLYITREPEVTCVVVDVSHEDPEVKFNWYVDGVEVHNAKTKPREEQYNSTYRVVSVLTVLHQDWLNGKEYKCKVSNKALPAPIEKTISKAKGQPREPQVYTLPPSRDELTKNQVSLTCLVKGFYPSDIAVEWESNGQPENNYKTTPPVLDSDGSFFLYSKLTVDKSRWQQGNVFSCSVMHEALKFHYTQKSLSLSPGK
notes: Isolated variant human IgG Fc region with no variable region; Produced in CHO cells, fucosylated; also called wild-type Fc-Abdeg; fucosylated Fc-Abdeg
Molecule B2 had an EC50 in experiment [1] of more than 0.1 µM.

B3: Fc-Abdeg-S239D/I332E (other)
chain: DKTHTCPPCPAPELLGGPDVFLFPPKPKDTLYITREPEVTCVVVDVSHEDPEVKFNWYVDGVEVHNAKTKPREEQYNSTYRVVSVLTVLHQDWLNGKEYKCKVSNKALPAPEEKTISKAKGQPREPQVYTLPPSRDELTKNQVSLTCLVKGFYPSDIAVEWESNGQPENNYKTTPPVLDSDGSFFLYSKLTVDKSRWQQGNVFSCSVMHEALKFHYTQKSLSLSPGK
notes: also called Fc-Abdeg-S239D/I332E variant
For the molecule B3, the EC50 in experiment [2] amounted to 0.006 µM.
